# Source: publication PMC11255897
# Biological target: Ras binding domain (RBD) of the yeast Ras effector Byr2 fused to GST
# Test: pull-down with GST-Byr2(RBD), Flag immunoblot densitometry
# Conditions: read off a plot; for percent of parent (% of RasC(WT)-CA binding) / percent of parent (% of wild-type RasC peak (10 s cAMP)): parent: est. 100; for percent of parent (% of wild-type RasC peak (10 s cAMP)): 10 s cAMP stimulation; for response (% of wild-type RasC peak (10 s cAMP)): basal (before cAMP stimulation), parent: est. 20
percent of parent (% of RasC(WT)-CA binding),percent of parent (% of wild-type RasC peak (10 s cAMP)),response (% of wild-type RasC peak (10 s cAMP)),response (% of RasC(WT)-CA binding) (parent: est. 15),Substance
290,,,,"constitutively active (CA) RasC-Q62L mutant, Flag-tagged (from UniProt P32253) A31K"
180,,,,"constitutively active (CA) RasC-Q62L mutant, Flag-tagged (from UniProt P32253) K138A; R164A; K167A"
,130,28,,wild-type Flag-RasC (from UniProt P32253) A31K
,2,2,,wild-type Flag-RasC (from UniProt P32253) C186A
,18,19,,wild-type Flag-RasC (from UniProt P32253) E38A; N39A; S40A
,8,11,,wild-type Flag-RasC (from UniProt P32253) T36A

# More lines, now with the values behind:
Substance,percent of parent (% of RasC(WT)-CA binding),percent of parent (% of wild-type RasC peak (10 s cAMP)),response (% of wild-type RasC peak (10 s cAMP)),response (% of RasC(WT)-CA binding) (parent: est. 15)
"constitutively active (CA) RasC-Q62L mutant, Flag-tagged (from UniProt P32253) A31D",240,,,
"constitutively active (CA) RasC-Q62L mutant, Flag-tagged (from UniProt P32253) A31L",200,,,
"constitutively active (CA) RasC-Q62L mutant, Flag-tagged (from UniProt P32253) K182A; K183A; R184A",210,,,
"constitutively active (CA) RasC-Q62L mutant, Flag-tagged (from UniProt P32253) Y41A",12,,,
wild-type Flag-RasC (from UniProt P32253) A31D,,42,27,
wild-type Flag-RasC (from UniProt P32253) A31L,,170,35,
wild-type Flag-RasC (from UniProt P32253) E38A,,10,5,
wild-type Flag-RasC (from UniProt P32253) K138A; R164A; K167A,,100,,
wild-type Flag-RasC (from UniProt P32253) K182A; K183A; R184A,,17,8,
wild-type Flag-RasC (from UniProt P32253) Q62L,,,,100
wild-type Flag-RasC (from UniProt P32253) Y41A,,23,,
